Results as given in paper PMC11130294 (Nature Communications, 2024).

What was measured:
FabDA1 [1] = assay: MST; pH 7.5: Fab labelled with a 647-nm fluorophore at 40 nM, NorA in PMAL-C8 amphipol at varied concentrations; 20 mM Tris pH 7.5, 100 mM NaCl, 0.025% Tween-20; 15 min incubation; fit with Hill slope 1.0; three replicates
FabDA1 [2] = assay: MST; pH 5.0: Fab labelled with a 647-nm fluorophore at 40 nM, NorA in PMAL-C8 amphipol at varied concentrations; 50 mM acetate pH 5.0, 100 mM NaCl, 0.025% Tween-20; 15 min incubation; fit with Hill slope 1.0; three replicates
[3] = molecular target: T1, Staphylococcus aureus efflux pump NorA, wild type (S. aureus, UniProt P0A0J7); assay: MST; NorA in amphipol at varied concentrations mixed with fluorophore-labelled Fab at 40 nM; 20 mM Tris pH 7.5, 100 mM NaCl, 0.025% Tween-20; 15 min incubation; three replicates; conditions: both partners purified
T1 construct: NorA, major facilitator superfamily efflux pump of S. aureus; the construct is not described here; The C-terminal Myc tag is told only for the MRSA expression plasmid, not for this E. coli protein; also called wild-type NorA

B1: NorA (wild-type, Staphylococcus aureus efflux pump) (natural protein)
chain: MNKQIFVLYFNIFLIFLGIGLVIPVLPVYLKDLGLTGSDLGLLVAAFALSQMIISPFGGTLADKLGKKLIICIGLILFSVSEFMFAVGHNFSVLMLSRVIGGMSAGMVMPGVTGLIADISPSHQKAKNFGYMSAIINSGFILGPGIGGFMAEVSHRMPFYFAGALGILAFIMSIVLIHDPKKSTTSGFQKLEPQLLTKINWKVFITPVILTLVLSFGLSAFETLYSLYTADKVNYSPKDISIAITGGGIFGALFQIYFFDKFMKYFSELTFIAWSLLYSVVVLILLVFANGYWSIMLISFVVFIGFDMIRPAITNYFSNIAGERQGFAGGLNSTFTSMGNFIGPLIAGALFDVHIEAPIYMAIGVSLAGVVIVLIEKQHRAKLKEQNM
Kd (FabDA1 [1]): > 24.5 µM
Kd (FabDA1 [2]): 2900 nM

B2: Fab36 (Fab, V domains shown)
VH: EVQLVESGGGLVQPGGSLRLSCAASGFTFSSSSIHWVRQAPGKGLEWVASISSSSGSTSYADSVKGRFTISADTSKNTAYLQMNSLRAEDTAVYYCARYSRYYYYAWRVGGYWGGLDYWGQGTLVTVFN
VL: DIQMTQSPSSLSASVGDRVTITCRASQSVSSAVAWYQQKPGKAPKLLIYSASSLYSGVPSRFSGSRSGTDFTLTISSLQPEDFATYYCQQSSSSLITFGQGTKVEIK
notes: also called outward-open-specific Fab36
binding result [3]: binds
